Target: T1, ERCAT-MBP (ERECTA kinase domain fused to maltose binding protein, kinase-active) (Arabidopsis, UniProt Q42371 611-976)
T1 construct: Expressed in E. coli from pMAL-c2 and purified on amylose resin; dot-blotted on nitrocellulose
T1 sequence: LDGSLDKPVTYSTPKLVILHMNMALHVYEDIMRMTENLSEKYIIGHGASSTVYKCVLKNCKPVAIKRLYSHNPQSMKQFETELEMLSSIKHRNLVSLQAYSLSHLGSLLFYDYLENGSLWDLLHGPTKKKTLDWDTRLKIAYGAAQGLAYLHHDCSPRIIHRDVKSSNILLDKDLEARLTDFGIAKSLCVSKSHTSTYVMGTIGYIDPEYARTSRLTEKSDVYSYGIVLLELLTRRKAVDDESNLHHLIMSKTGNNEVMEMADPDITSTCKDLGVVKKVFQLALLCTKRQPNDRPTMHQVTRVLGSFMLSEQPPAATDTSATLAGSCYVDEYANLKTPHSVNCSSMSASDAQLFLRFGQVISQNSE
Assay: far-western dot blot with 32P-labelled GST-KID
Description: Far-Western Analysis of the ERECTA-KAPP Interaction: For protein-protein interaction (far-western) blot analysis, the kinase domains of ERECTA and RLK5 were expressed as MBP fusions. The ERECTA kinase domain (corresponding to amino acids 611 to 977) was amplified from cDNA using the primers ERK4 (5′ […] 3′, SEQ ID NO:34) and ER3rc (5′ […] 3′, SEQ ID NO:35). The amplified fragment was digested with EcoRI and BamHI and introduced into pSP73-delta-AatII to generate pKUT503. […] The first round of PCR was performed with the primer pairs ERK4 and ERK13/K676E (5′ […] 3′, SEQ ID NO:36) and ERKI5/K676E (5′ […] 3′, SEQ ID NO:37) and ERCodeC3 (5′ […] 3′, SEQ ID NO:38). In the next round, products from both reactions were mixed and amplified with ERK4 and ERCodeC3. The amplified fragment was digested with EcoRI and BamHI and introduced into the plasmid pSP73-delta-AatII to generate pKUT536. The EcoRI-SalI fragments of both pKUT503 and pKUT536 were cloned into pMAL-c2 (New England Biolabs). The plasmids RLK5CAT-MBP, RLK5CAT(K711E)MBP, and GST-KID 134 were generous gifts from John Walker (University of Missouri, Columbia). […] Protein concentrations were determined with Bio-Rad Protein Assay Solution. […]

B1: GST-KID (kinase interaction domain of Kinase-Associated Protein Phosphatase, KAPP, fused to glutathione S-transferase) (other, UniProt P46014 180-313, looked up)
chain: SWLFLEVIAGPAIGLQHAVNSTSSSKLPVKLGRVSPSDLALKDSEVSGKHAQITWNSTKFKWELVDMGSLNGTLVNSHSISHPDLGSRKWGNPVELASDDIITLGTTTKVYVRISSQNEFQIPFKIGVASDPMA
modifications: labeled with 32P
notes: Plasmid was a gift (John Walker); expressed in E. coli, purified on glutathione-Sepharose, 32P-labelled and used as the probe in the far-western dot blot; also called KAPP KID; radiolabeled KID protein; not shown: glutathione S-transferase (GST) fusion partner
B1: no binding (tested: One milligram blotted).

— patent US20050223428A1 (published 2005)
